2 molecules from patent US20180334494A1 (UNIVERSITY OF VIRGINIA PATENT FOUNDATION, published 2018) can be followed below.

This assay addresses T1, C-terminal domain of Zaire Ebola virus Nucleoprotein (NP^Ct) (Zaire Ebola virus, UniProt P18272 641-739).
T1 construct: also called Zaire NP^Ct; Zaire EBOV NP^Ct
The assay is described as follows: ITC. For orientation: In ITC the heat of successive injections is recorded.

Substitutions are numbered along the chain they refer to.

T1 sequence (P18272 641-739, tags left off): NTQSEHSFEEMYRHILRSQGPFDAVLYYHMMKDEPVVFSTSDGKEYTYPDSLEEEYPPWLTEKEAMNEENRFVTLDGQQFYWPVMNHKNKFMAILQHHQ

B1: Fab 6 (Fab, V domains shown)
VH: EVQLVESGGGLVQPGGSLRLSCAASGFNVYYYYIHWVRQAPGKGLEWVASISPYYGYTSSYADSVKGRFTISADTSKNTAYLQMNSLRAEDTAVYYCARWSYDQSMSYKSGMDYWGQGTLVTVSS
VL: DIQMTQSPSSLSASVGDRVTITCRASQSVSSAVAWYQQKPGKAPKLLIYSASSLYSGVPSRFSGSRSGTDFTLTISSLQPEDFATYYCQQYSYSLVTFGQGTKVEIKR
In turn, B1 gave a Kd of around 5 nM.

B2: Fab 20 (Fab, V domains shown)
VH: EVQLVESGGGLVQPGGSLRLSCAASGFNISYSSIHWVRQAPGKGLEWVASIYSYSGYTSYADSVKGRFTISADTSKNTAYLQMNSLRAEDTAVYYCARSYWYHVGSWHYTGMDYWGQGTLVTVSS
VL: B1 VL with Y91S, Y93S, V96I
Take B2: the Kd is around 5 nM.

One may read the Kd as the constant that tells how readily two partners part at equilibrium.
